We go through nine molecules from patent US20260137822A1 (ABDERA THERAPEUTICS, published 2026).

Test [1] deals with T1, FcγRIIa (H167) (biotinylated, Acro Biosystems) (UniProt P12318 36-218, biotinylated).
T1 sequence (looked up): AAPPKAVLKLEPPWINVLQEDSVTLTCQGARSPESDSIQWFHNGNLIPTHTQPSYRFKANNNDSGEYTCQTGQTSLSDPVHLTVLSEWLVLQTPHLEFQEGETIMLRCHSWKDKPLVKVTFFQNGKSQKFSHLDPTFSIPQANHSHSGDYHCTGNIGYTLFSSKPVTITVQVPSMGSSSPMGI
The test can be described thus: BLI, biotinylated FcγR on SA sensor.

For test [2], the target named is FcγRIIIa (F176) (biotinylated, Acro Biosystems) (UniProt P08637 17-208, biotinylated). Nature of the test: BLI, biotinylated FcγR on SA sensor.
Chain of FcγRIIIa (F176) (biotinylated, Acro Biosystems) (P08637 17-208 limits assumed): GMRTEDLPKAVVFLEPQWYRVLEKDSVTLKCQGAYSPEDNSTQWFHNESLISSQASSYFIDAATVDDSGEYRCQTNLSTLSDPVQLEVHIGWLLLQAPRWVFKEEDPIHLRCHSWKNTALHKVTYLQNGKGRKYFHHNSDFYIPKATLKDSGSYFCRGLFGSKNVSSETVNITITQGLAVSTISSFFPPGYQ
The target of test [3] is FcγRIIIa (V176) (biotinylated, Acro Biosystems) (UniProt P08637 17-208, biotinylated). Nature of the test: BLI, biotinylated FcγR on SA sensor.
Chain of FcγRIIIa (V176) (biotinylated, Acro Biosystems) (P08637 17-208 F176V limits assumed): as the sequence (P08637 17-208 limits assumed) above, with F160V counted along it
Test [4] deals with biotinylated hFcRn (Sino Biological, Cat #: CT071-H27H-B) (human, UniProt P55899 24-297; P61769 21-119, biotinylated). The test can be described thus: BLI (Octet), biotinylated hFcRn on SA sensor, pH 6.0, 2:1 heterogeneous ligand model.
The target of test [5] is T2, FcγRIIa (R167) (biotinylated, Acro Biosystems) (UniProt P12318 36-218, biotinylated).
T2 sequence (looked up): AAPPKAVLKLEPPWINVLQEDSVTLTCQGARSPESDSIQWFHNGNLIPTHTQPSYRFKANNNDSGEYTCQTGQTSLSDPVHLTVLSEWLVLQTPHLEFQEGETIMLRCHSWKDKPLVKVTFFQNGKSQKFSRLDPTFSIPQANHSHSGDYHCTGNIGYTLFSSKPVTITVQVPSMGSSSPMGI
The test can be described thus: BLI (Octet), biotinylated FcγR on SA sensor, steady state analysis.

Test [6] has as its target FcγRI (biotinylated, Acro Biosystems) (UniProt P12314 16-288, biotinylated). Nature of the test: BLI, biotinylated FcγR on SA sensor.
Test [7] deals with T3, FcγRIIb/c (biotinylated, Acro Biosystems) (UniProt P31994 46-217, biotinylated).
T3 sequence (looked up): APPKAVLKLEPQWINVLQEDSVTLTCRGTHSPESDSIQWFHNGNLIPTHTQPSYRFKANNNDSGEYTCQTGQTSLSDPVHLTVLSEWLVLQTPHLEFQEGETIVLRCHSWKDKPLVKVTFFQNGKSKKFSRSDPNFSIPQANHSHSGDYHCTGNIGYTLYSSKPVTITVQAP
The test can be described thus: BLI (Octet), biotinylated FcγR on SA sensor, steady state analysis.

The target in test [8] is T4, human DLL3 (antigen of Example 30) (human, UniProt Q9NYJ7 27-492, limits assumed).
T4 construct: also called hDLL3
T4 sequence (looked up): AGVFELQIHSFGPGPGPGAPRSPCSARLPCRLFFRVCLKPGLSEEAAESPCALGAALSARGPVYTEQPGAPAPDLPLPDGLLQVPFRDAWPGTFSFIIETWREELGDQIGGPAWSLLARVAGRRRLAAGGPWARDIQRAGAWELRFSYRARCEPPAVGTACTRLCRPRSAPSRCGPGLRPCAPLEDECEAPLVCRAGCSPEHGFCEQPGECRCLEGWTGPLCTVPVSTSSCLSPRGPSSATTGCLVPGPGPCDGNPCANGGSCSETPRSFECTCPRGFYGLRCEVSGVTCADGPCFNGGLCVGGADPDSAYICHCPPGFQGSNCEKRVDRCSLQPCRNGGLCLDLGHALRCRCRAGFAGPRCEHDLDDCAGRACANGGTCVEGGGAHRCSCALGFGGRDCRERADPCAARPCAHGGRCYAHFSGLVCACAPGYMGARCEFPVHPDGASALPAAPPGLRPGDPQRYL
Nature of the test: BLI (Octet), tetramer captured on AHC sensor, antigen as analyte.

For test [9], the target named is T5, murine FOLR1 (antigen of the Octet assay) (murine, UniProt P35846 25-232, limits assumed).
T5 construct: also called mFOLR1
T5 sequence (P35846 25-232 limits assumed): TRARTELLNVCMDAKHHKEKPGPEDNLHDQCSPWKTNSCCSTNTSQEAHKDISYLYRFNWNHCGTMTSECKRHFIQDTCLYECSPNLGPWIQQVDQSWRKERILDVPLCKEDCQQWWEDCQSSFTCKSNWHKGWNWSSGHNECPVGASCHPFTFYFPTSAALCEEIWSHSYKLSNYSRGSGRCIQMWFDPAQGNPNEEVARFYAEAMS
The test is described as above.

Test [10] deals with T6, FOLR1 on cells (OVCAR3, OV-90) (UniProt P15328 25-234).
T6 construct: whole, on cells; also called FOLR1-positive OVCAR3 cells; FOLR1 expressing OV-90 cells
T6 sequence (P15328 25-234): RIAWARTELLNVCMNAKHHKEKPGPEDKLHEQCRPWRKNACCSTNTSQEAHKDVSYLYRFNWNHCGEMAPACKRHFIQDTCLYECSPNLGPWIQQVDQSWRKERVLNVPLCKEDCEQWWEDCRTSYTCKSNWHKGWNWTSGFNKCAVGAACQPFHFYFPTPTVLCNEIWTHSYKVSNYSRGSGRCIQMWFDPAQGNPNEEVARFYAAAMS
Nature of the test: flow cytometry on FOLR1 expressing OV-90 cells, Geomeans RL1-H against Conc (nM); linker not printed on the sheet, taken as the (GGS)3 parent of the conjugate [bottom panel].

Test [11] addresses T7, human FOLR1 (antigen of the Octet assay) (human, UniProt P15328 25-234, limits assumed).
T7 construct: also called hFOLR1
The test can be described thus: BLI (Octet), tetramer captured on AHC sensor, antigen as analyte.

Test [12] concerns the target T6, FOLR1 on cells (OVCAR3, OV-90). The test can be described thus: binding to FOLR1-positive OVCAR3 cells.

Chain of FcγRI (biotinylated, Acro Biosystems) (P12314 16-288 limits assumed): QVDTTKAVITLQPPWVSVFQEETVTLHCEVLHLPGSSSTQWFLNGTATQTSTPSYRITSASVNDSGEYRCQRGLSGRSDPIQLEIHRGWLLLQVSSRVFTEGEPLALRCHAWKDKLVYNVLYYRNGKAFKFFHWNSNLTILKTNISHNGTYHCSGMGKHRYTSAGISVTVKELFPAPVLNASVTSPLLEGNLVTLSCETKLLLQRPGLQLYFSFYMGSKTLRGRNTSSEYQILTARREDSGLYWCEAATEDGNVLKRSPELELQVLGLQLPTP
T7 sequence (P15328 25-234 limits assumed): as the sequence (P15328 25-234) above

B1: H133 (Fc fusion)
chain (part 1 of 2): QVQLQESGGGSVQAGGSLKLTCAASGYIFNSCGMGWYRQSPGRERELVSRISGDGDTWHKESVKGRFTISQDNVKKTLYLQMNSLKPEDTAVYFCAVCYNLETYWGQGTQVTVSS
chain (part 2 of 2): APEAEGAPSVFLFPPKPKDTLMISRTPEVTCVVVDVSHEDPEVKFNWYVDGVEVHNAKTKPREEQYNSTYRVVSVLTVLHQDWLNGKEYKCKVSNKALPSSIEKTISKAKGQPREPQVYTLPPSREEMTKNQVSLTCLVKGFYPSDIAVEWESNGQPENNYKTTPPVLDSDGSFFLYSKLTVDKSRWQQGNVFSCSVMHEALHNHYTQKSLSLSPG
notes: not shown: hinge; copies: 2 + 2
On to B1, for which the binding result in test [1], in test [2] and in [3] was “no binding” throughout. Besides, the dissociation constant (Kd) in test [4] came out at 2.1 nM; in test [5], 2300 nM.

B2: D134 (Fc fusion)
chain (part 1 of 2): EVQLVESGGGEVQPGGSLRLSCAASGSIFSINAMGWYRQAPGKQRELVAGFTGDTNTIYAESVKGRFTISRDNAKNTVYLQMSSLRAEDTAVYYCAADVQLFSRDYEFYWGQGTLVTVKP
chain (part 2 of 2): APEAEGAPSVFLFPPKPKDTLMISRTPEVTCVVVDVSHEDPEVKFNWYVDGVEVHNAKTKPREEQYNSTYRVVSVLTVLHQDWLNGKEYKCKVSNKALPSSIEKTISKAKGQPREPQVYTLPPSREEMTKNQVSLTCLVKGFYPSDIAVEWESNGQPENNYKTTPPVLDSDGSFFLYSKLTVDKSRWQQGNVFSCSVMHEALHNHYTQKSLSLSPG
notes: as for B1
B2: the binding result in [2], in test [6] and in test [3] was “no binding” each time. The Kd in test [4] was 1.9 nM; in test [5], 460 nM; in test [7] it was 1100 nM.

B3: D138 (Fc fusion)
chain (part 1 of 2): EVQLVESGGGEVQPGGSLRLSCAASGSIFSINAMGWYRQAPGKQRELVAGFTGDTNTIYAESVKGRFTISRDNAKNTVYLQMSSLRAEDTAVYYCAADVQLFSRDYEFYWGQGTLVTVKP
chain (part 2 of 2): APEAEGAPSVFLFPPKPKDTLMISRTPEVTCVVVDVSHEDPEVKFNWYVDGVEVHNAKTKPREEQYNSTYRVVSVLTVLHQDWLNGKEYKCKVSNKALPSSIEKTISKAKGQPREPQVYTLPPSREEMTKNQVSLTCLVKGFYPSDIAVEWESNGQPENNYKTTPPVLDSDGSFFLYSKLTVDKSRWQQGNVFSCSVMHEALHNQYTQKSLSLSPG
notes: as for B1
Regarding B3, the binding result in [2] and in test [3] was “no binding” each time. For the same molecule, the Kd in test [5] is 520 nM; in test [7] it was 770 nM.

B4: H137 (Fc fusion)
chain (part 1 of 2): QVQLQESGGGSVQAGGSLKLTCAASGYIFNSCGMGWYRQSPGRERELVSRISGDGDTWHKESVKGRFTISQDNVKKTLYLQMNSLKPEDTAVYFCAVCYNLETYWGQGTQVTVSS
chain (part 2 of 2): APEAEGAPSVFLFPPKPKDTLMISRTPEVTCVVVDVSHEDPEVKFNWYVDGVEVHNAKTKPREEQYNSTYRVVSVLTVLHQDWLNGKEYKCKVSNKALPSSIEKTISKAKGQPREPQVYTLPPSREEMTKNQVSLTCLVKGFYPSDIAVEWESNGQPENNYKTTPPVLDSDGSFFLYSKLTVDKSRWQQGNVFSCSVMHEALHNQYTQKSLSLSPG
notes: as for B1
Regarding B4, the binding result in [1], in test [2], in [6] and in test [3] was “no binding” throughout. For the same molecule, the Kd in test [5] was 1200 nM.

B5: H135 (Fc fusion)
chain (part 1 of 2): QVQLQESGGGSVQAGGSLKLTCAASGYIFNSCGMGWYRQSPGRERELVSRISGDGDTWHKESVKGRFTISQDNVKKTLYLQMNSLKPEDTAVYFCAVCYNLETYWGQGTQVTVSS
chain (part 2 of 2): APEAEGAPSVFLFPPKPKDTLMISRTPEVTCVVVDVSHEDPEVKFNWYVDGVEVHNAKTKPREEQYNSTYRVVSVLTVLAQDWLNGKEYKCKVSNKALPSSIEKTISKAKGQPREPQVYTLPPSREEMTKNQVSLTCLVKGFYPSDIAVEWESNGQPENNYKTTPPVLDSDGSFFLYSKLTVDKSRWQQGNVFSCSVMHEALHNHYTQKSLSLSPG
notes: as for B1
Turning to B5, the binding result in test [1], in [2], in test [6] and in test [3] was “no binding” in each case. In test [5], the Kd was 1200 nM.

B6: D136 (Fc fusion)
chain (part 1 of 2): EVQLVESGGGEVQPGGSLRLSCAASGSIFSINAMGWYRQAPGKQRELVAGFTGDTNTIYAESVKGRFTISRDNAKNTVYLQMSSLRAEDTAVYYCAADVQLFSRDYEFYWGQGTLVTVKP
chain (part 2 of 2): APEAEGAPSVFLFPPKPKDTLMISRTPEVTCVVVDVSHEDPEVKFNWYVDGVEVHNAKTKPREEQYNSTYRVVSVLTVLAQDWLNGKEYKCKVSNKALPSSIEKTISKAKGQPREPQVYTLPPSREEMTKNQVSLTCLVKGFYPSDIAVEWESNGQPENNYKTTPPVLDSDGSFFLYSKLTVDKSRWQQGNVFSCSVMHEALHNHYTQKSLSLSPG
notes: as for B1
Take B6: the binding result in [2], in test [6] and in [3] was “no binding” each time. The values for the Kd in test [5] and in test [7] were 570 nM and 2200 nM, respectively.

B7: Anti-FOLR1x2; Anti-DLL3x2; (GGS)3 tetramer (bispecific antibody)
chain (part 1 of 2): QVQLVESGGGLVQPGGSLRLSCAASGFTVSNSVMAWYRQTPGNEREFVAIINSIGITNYADSVKGRFTISRDNSKNTLYLQMNSLRAEDTAVYVCNRNFDRIYWGQGTLVTVSSGGSGGSGGSEVQLVESGGGEVQPGGSLRLSCAASGSIFSINAMGWYRQAPGKQRELVAGFTGDTNTIYAESVKGRFTISRDNAKNTVYLQMSSLRAEDTAVYYCAADVQLFSRDYEFYWGQGTLVTVKP
chain (part 2 of 2): not shown
notes: As m61 with the (GGS)3 linker; also called bispecific tetramer GGSx3; not shown: hinge
Consider B7, for which the binding result in test [8] and in [9] was “binds” throughout. The “EC50 (read off the curve)” value in test [10] was around 3 nM.

B8: Anti-FOLR1x2; Anti-DLL3x2; (GGGGS)3 tetramer (bispecific antibody)
chain (part 1 of 2): QVQLVESGGGLVQPGGSLRLSCAASGFTVSNSVMAWYRQTPGNEREFVAIINSIGITNYADSVKGRFTISRDNSKNTLYLQMNSLRAEDTAVYVCNRNFDRIYWGQGTLVTVSSGGGGSGGGGSGGGGSEVQLVESGGGEVQPGGSLRLSCAASGSIFSINAMGWYRQAPGKQRELVAGFTGDTNTIYAESVKGRFTISRDNAKNTVYLQMSSLRAEDTAVYYCAADVQLFSRDYEFYWGQGTLVTVKP
chain (part 2 of 2): not shown
notes: entry chosen by mutation status; also called bispecific tetramer GGGGSx3; not shown: hinge
As to B8, the binding result in test [11], in [8], in [9] and in test [12] was “binds” throughout.

B9: Anti-FOLR1x2; Anti-DLL3x2; (GGS)4 tetramer (bispecific antibody)
chain (part 1 of 2): QVQLVESGGGLVQPGGSLRLSCAASGFTVSNSVMAWYRQTPGNEREFVAIINSIGITNYADSVKGRFTISRDNSKNTLYLQMNSLRAEDTAVYVCNRNFDRIYWGQGTLVTVSSGGSGGSGGSGGSEVQLVESGGGEVQPGGSLRLSCAASGSIFSINAMGWYRQAPGKQRELVAGFTGDTNTIYAESVKGRFTISRDNAKNTVYLQMSSLRAEDTAVYYCAADVQLFSRDYEFYWGQGTLVTVKP
chain (part 2 of 2): not shown
notes: As m61 with the (GGS)4 linker; also called bispecific tetramer GGSx4; not shown: hinge
With B9, the binding result in test [11], in test [8], in [9] and in test [12] was “binds” each time.
